From US20050282743A1, “Molecular interactions in cells” (Arbor Vita Corporation, priority 2001, published 2005)

How the values were obtained:
[1] = target: T1, GST-PDZK1 PDZ domains 2, 3, 4, Q5T2W1; assay: G' assay; note: key of the grades not given here
T1 chain: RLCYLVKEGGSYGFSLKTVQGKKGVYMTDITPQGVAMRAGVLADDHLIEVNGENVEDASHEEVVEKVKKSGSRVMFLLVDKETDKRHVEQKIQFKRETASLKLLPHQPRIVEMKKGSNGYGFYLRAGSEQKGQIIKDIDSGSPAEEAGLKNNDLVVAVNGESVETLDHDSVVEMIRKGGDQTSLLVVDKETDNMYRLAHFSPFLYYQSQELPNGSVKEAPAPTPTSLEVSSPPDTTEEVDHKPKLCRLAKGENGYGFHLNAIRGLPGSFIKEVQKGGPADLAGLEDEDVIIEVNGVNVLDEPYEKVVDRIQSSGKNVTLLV

[2] = target: GST-KIAA807 [GST: P08515]; assay: G' assay; note: key of the grades not given here
Chain of GST-KIAA807 [GST: P08515] (P08515 whole entry, the tested form may be a part): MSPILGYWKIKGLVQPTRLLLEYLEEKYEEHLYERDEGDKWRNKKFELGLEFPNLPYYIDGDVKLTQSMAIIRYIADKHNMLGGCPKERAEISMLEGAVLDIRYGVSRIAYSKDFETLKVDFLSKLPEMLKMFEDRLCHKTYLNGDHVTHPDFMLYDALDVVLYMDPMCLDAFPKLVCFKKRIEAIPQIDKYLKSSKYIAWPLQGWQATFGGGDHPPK

[3] = target: T2, GST-PDZK1 PDZ domain 2 (Homo sapiens (Human)), Q5T2W1; assay: G' assay; note: key of the grades not given here
T2 chain: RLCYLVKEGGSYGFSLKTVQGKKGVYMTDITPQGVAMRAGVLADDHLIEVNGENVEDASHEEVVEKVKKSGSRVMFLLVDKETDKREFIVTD

[4] = target: T3, GST-KIAA0807(S) PDZ domain 1 (Homo sapiens (Human)), Q6P0Q8; assay: G' assay; note: key of the grades not given here
T3 chain: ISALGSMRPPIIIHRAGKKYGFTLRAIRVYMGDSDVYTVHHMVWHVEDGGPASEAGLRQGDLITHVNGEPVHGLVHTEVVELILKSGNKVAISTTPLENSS

[5] = target: T4, GST-Shank 3 PDZ domain 1 (human (hypothetical, computer cloned)), Q9BYB0; assay: G' assay; note: key of the grades not given here
T4 chain: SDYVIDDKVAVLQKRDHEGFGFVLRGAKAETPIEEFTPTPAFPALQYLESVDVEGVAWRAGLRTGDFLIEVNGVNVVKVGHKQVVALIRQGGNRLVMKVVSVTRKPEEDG

[6] = target: T5, GST-EZRIN Binding Protein 50 PDZ domain 2 (Homo sapiens (Human)), O14745; assay: G' assay; note: key of the grades not given here
T5 chain: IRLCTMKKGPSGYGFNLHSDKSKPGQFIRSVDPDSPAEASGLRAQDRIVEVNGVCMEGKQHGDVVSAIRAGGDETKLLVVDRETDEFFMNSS

[7] = target: T6, GST-KIAA0561 PDZ domain 1 (Homo sapiens (Human)), O60307; assay: G' assay; note: key of the grades not given here
T6 chain: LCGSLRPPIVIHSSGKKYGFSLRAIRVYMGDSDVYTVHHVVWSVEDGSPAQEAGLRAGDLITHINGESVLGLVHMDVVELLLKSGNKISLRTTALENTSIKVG

[8] = target: T7, GST-Shank 1 PDZ domain 1 (Homo sapiens (Human)), Q9UPX8; assay: G' assay; note: key of the grades not given here
T7 chain: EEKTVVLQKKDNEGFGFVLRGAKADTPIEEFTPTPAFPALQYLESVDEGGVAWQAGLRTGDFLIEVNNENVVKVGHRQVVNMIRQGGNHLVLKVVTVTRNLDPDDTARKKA

[9] = target: T8, GST-EZRIN Binding Protein 50 PDZ domain 1 (Homo sapiens (Human)), O14745; assay: G' assay; note: key of the grades not given here
T8 chain: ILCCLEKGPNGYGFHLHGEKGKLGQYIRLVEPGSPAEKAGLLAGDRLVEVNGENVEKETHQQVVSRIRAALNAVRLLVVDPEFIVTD

[10] = target: T2, GST-PDZK1 PDZ domain 2 (Homo sapiens …); assay: G assay titration, PDZ 5 ug/ml
[11] = target: T3, GST-KIAA0807(S) PDZ domain 1 (Homo …); assay: G assay titration, PDZ 0.3 ug/ml
[12] = target: T9, GST-BAI-1 Associated Protein PDZ domain 2 (Mus musculus (Mouse)), Q6RHR9; assay: G assay titration, PDZ 1 ug/ml
T9 sequence (Q6RHR9 455-558): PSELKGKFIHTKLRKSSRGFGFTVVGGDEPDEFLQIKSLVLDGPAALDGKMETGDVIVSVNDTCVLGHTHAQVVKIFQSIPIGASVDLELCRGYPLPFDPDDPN

[13] = target: T10, GST-PSD95 PDZ domain 3 (Homo sapiens); assay: G assay titration, PDZ 1 ug/ml
T10 chain: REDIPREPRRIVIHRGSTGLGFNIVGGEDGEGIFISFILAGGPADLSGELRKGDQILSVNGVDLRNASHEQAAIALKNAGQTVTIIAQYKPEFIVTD

[14] = target: T11, GST-NeDLG PDZ domains 1, 2, Q92796; assay: G assay titration, PDZ 1 ug/ml
T11 chain: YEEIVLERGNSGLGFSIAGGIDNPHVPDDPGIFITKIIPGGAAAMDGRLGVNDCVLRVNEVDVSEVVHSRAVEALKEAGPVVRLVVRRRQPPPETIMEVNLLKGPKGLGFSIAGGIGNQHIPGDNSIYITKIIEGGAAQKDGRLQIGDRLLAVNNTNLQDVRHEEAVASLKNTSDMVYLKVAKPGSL

[15] = target: T12, GST-NeDLG PDZ domain 3 (Mus musculus (Mouse)), P70175; assay: G' assay; note: key of the grades not given here
T12 chain: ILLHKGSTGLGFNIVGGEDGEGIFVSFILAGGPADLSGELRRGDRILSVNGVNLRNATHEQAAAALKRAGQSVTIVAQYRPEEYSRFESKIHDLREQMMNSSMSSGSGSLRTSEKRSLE

[16] = target: GST-DLG2 PDZ domain 1 (Homo sapiens (Human)), Q15700; assay: G' assay; note: key of the grades not given here
[17] = target: GST-Atrophin-1 Interacting Protein PDZ domain 1 (Rattus norvegicus (Rat)), O88382; assay: G' assay; note: key of the grades not given here
Chain of GST-Atrophin-1 Interacting Protein PDZ domain 1 (Rattus norvegicus (Rat)), O88382 (O88382 408-511): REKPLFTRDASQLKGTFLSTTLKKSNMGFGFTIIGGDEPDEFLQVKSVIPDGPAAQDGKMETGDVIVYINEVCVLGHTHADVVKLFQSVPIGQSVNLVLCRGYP

[18] = target: GST-KIAA0147 PDZ domain 1 (Homo sapiens (Human)), Q14160; assay: G' assay; note: key of the grades not given here
Chain of GST-KIAA0147 PDZ domain 1 (Homo sapiens (Human)), Q14160 (Q14160 other isoform, or with tags, fused parts or gaps): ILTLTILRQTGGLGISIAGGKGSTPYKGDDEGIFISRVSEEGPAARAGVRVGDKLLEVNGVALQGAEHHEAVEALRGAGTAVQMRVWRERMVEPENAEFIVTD

[19] = target: T13, GST-DLG1 PDZ domain 2 (Homo sapiens), Q12959; assay: G' assay; note: key of the grades not given here
T13 chain: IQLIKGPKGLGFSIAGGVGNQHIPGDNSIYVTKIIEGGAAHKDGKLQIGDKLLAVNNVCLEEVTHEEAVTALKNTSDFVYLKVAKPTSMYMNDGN

[20] = target: GST-DLG1 PDZ domain 1 (Homo sapiens), Q12959; assay: G' assay; note: key of the grades not given here
[21] = target: T14, GST-MUPP1 PDZ domain 10 (Homo sapiens (Human)), O75970; assay: G' assay; note: key of the grades not given here
T14 chain: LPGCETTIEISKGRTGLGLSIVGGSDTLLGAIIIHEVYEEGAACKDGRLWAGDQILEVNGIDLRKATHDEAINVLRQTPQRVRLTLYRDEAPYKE

[22] = target: GST-PSD95 PDZ domain 1 (Homo sapiens); assay: G' assay; note: key of the grades not given here
[23] = target: GST-PSD95 PDZ domains 1, 2, 3 (Homo sapiens), P78352; assay: G' assay; note: key of the grades not given here
Chain of GST-PSD95 PDZ domains 1, 2, 3 (Homo sapiens), P78352 (P78352 62-395): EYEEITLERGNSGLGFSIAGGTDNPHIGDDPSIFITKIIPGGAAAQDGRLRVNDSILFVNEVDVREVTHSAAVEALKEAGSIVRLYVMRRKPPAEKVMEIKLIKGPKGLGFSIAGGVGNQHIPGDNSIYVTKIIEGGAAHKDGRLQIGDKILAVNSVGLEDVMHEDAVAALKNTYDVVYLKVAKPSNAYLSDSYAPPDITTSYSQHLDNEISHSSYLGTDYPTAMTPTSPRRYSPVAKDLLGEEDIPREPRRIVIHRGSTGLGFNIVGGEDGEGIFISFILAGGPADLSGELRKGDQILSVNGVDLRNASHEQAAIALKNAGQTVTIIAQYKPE

[24] = target: GST-KIAA1634 PDZ domain 1 (Homo sapiens (Human)), Q5TCQ9; assay: G' assay; note: key of the grades not given here
Chain of GST-KIAA1634 PDZ domain 1 (Homo sapiens (Human)), Q5TCQ9 (Q5TCQ9 401-502): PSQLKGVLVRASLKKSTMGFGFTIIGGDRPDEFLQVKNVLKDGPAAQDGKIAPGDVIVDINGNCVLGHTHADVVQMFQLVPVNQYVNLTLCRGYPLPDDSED

[25] = target: T15, GST-DLG1 PDZ domain 3 (Homo sapiens), Q12959; assay: G' assay; note: key of the grades not given here
T15 chain: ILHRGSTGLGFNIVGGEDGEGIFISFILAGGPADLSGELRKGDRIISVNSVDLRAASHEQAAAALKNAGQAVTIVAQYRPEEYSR

[26] = target: T16, GST-KIAA0303 PDZ domain 1 (Homo sapiens (Human)), O15021; assay: G' assay; note: key of the grades not given here
T16 chain: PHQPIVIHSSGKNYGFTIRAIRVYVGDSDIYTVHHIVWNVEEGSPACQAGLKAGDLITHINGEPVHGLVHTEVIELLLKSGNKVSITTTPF

[27] = target: T9, GST-BAI-1 Associated Protein PDZ domain …; assay: G' assay; note: key of the grades not given here
[28] = target: T10, GST-PSD95 PDZ domain 3 (Homo sapiens); assay: G' assay; note: key of the grades not given here
[29] = target: T17, GST-MUPP1 PDZ domain 11 (Homo sapiens (Human)), O75970; assay: G' assay; note: key of the grades not given here
T17 chain: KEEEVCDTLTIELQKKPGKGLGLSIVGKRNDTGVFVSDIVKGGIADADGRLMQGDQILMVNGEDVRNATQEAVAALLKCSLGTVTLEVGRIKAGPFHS

[30] = target: GST-DLG1 PDZ domains 1, 2 (Homo sapiens), Q12959; assay: G' assay; note: key of the grades not given here
[31] = target: T11, GST-NeDLG PDZ domains 1, 2, Q92796; assay: G' assay; note: key of the grades not given here
[32] = target: T18, GST-NeDLG PDZ domain 2 (Rattus norvegicus (Rat)), Q62936; assay: G' assay; note: key of the grades not given here
T18 chain: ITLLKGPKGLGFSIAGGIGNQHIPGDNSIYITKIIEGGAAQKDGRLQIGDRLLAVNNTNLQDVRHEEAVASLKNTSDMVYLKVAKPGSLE

[33] = target: T19, GST-DLG2 PDZ domain 2 (Homo sapiens (Human)), Q15700; assay: G' assay; note: key of the grades not given here
T19 chain: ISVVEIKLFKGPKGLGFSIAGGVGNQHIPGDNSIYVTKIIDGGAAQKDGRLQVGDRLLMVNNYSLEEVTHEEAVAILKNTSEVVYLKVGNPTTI

[34] = target: T20, GST-KIAA1719 PDZ domain 3 (Homo sapiens (Human)), Q9C0E4; assay: G' assay; note: key of the grades not given here
T20 chain: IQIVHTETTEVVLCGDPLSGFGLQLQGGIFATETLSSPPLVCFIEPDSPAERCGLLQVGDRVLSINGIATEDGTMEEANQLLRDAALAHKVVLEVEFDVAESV

[35] = target: T21, GST-Outer Membrane PDZ domain 1 (Homo sapiens (Human)), P57105; assay: G' assay; note: key of the grades not given here
T21 chain: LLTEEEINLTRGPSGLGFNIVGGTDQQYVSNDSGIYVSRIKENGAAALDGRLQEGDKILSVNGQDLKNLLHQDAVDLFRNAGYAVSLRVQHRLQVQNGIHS

[36] = target: GST-DLG1 PDZ domains 1, 2 (Homo sapiens), Q12959; assay: G assay titration, PDZ 5 ug/ml

Which Classification [1] does the source give for PSWRRSSLSESENATSLTTF (modifications not checked) [BLR-1] here?
Its Classification is 1 A450 class.

What about the Classification [2] of the same binder?
The Classification was 2 A450 class.

And the Classification [3]?
The Classification was 1 A450 class.

And the Classification [4]?
Its Classification is 2 A450 class.

And the Classification [5]?
The Classification was 3 A450 class.

What about the Classification [6] of the same binder?
The Classification was 3 A450 class.

And the Classification [7]?
The Classification was 1 A450 class.

What about the Classification [8] of the same binder?
The Classification was 3 A450 class.

And the Classification [9]?
Its Classification is 3 A450 class.

And the Kd [10]?
Its Kd is 2000 nM.

What about the Kd [11] of the same binder?
Its Kd is 1000 nM.

Which Kd [12] does the source give for SFTSILTCHQRRTQRKETVA (modifications not checked) [GluR5-2 (rat)] here?
The Kd was 300 nM.

And the Kd [13]?
Its Kd is 100 nM.

What about the Kd [14] of the same binder?
The Kd was 100 nM.

What about the Classification [15] of the same binder?
The Classification was 2 A450 class.

What about the Classification [16] of the same binder?
The Classification was 1 A450 class.

What about the Classification [17] of the same binder?
Its Classification is 1 A450 class.

And the Classification [18]?
The Classification was 2 A450 class.

What about the Classification [19] of the same binder?
Its Classification is 2 A450 class.

What about the Classification [20] of the same binder?
Its Classification is 2 A450 class.

And the Classification [21]?
The Classification was 2 A450 class.

And the Classification [22]?
The Classification was 3 A450 class.

And the Classification [23]?
The Classification was 5 A450 class.

And the Classification [24]?
Its Classification is 5 A450 class.

And the Classification [25]?
Its Classification is 1 A450 class.

And the Classification [26]?
The Classification was 1 A450 class.

And the Classification [4]?
Its Classification is 1 A450 class.

And the Classification [27]?
The Classification was 5 A450 class.

What about the Classification [28] of the same binder?
Its Classification is 5 A450 class.

What about the Classification [29] of the same binder?
Its Classification is 1 A450 class.

What about the Classification [30] of the same binder?
Its Classification is 5 A450 class.

And the Classification [31]?
Its Classification is 5 A450 class.

And the Classification [32]?
The Classification was 1 A450 class.

And the Classification [33]?
The Classification was 1 A450 class.

What about the Classification [34] of the same binder?
The Classification was 1 A450 class.

How did the Classification [35] turn out when LHNQASVPLEPRPLRRESEI (modifications not checked) [Kir2.1 (inwardly rect. K+ channel)] was run?
The Classification was 4 A450 class.

What about the Classification [17] of the same binder?
Its Classification is 1 A450 class.

And the Classification [19]?
The Classification was 1 A450 class.

And the Classification [23]?
The Classification was 2 A450 class.

What about the Classification [24] of the same binder?
The Classification was 1 A450 class.

And the Classification [30]?
The Classification was 2 A450 class.

And the Classification [31]?
The Classification was 1 A450 class.

What about the Classification [33] of the same binder?
The Classification was 1 A450 class.

What about the Kd [36] of the same binder?
Its Kd is 5000 nM.
